US20260217843A1 (APOGEE THERAPEUTICS, published 2026)

B1: anti-hOX40L antibody clone 122 (antibody, human IgG1, kappa, L234A L235A, V domains shown)
VH: EVQLVESGGGLVQPGGSLRLSCAASGFTFSNYWMHWVRQAPGKGLVWVSRINSDGISTRYADSVKGRFTISRDNAKNTLYLQMKSLRAEDTAVYYCVRDFQLELPDYWGQGTLVTVSS
VL: DIQMTQSPSSLSASVGDRVTITCRASQGIRDDLAWYQQKAGKAPKRLIFAASSLQSGVPSRFSGSGSGTEFTLTISGLQPEDFANYYCLQHKSNPFTFGQGTKLEIKR
B2: anti-hOX40L antibody clone 130 (antibody, human IgG1, kappa, L234A L235A, V domains shown)
VH: EVQLVESGGGLVKPGGSLRLSCAASGFTFSYAWMSWVRQAPGRGLEWVGRIKSETDGGTTDYAAPVKGRFTISRDHSENTLFLQMNSLKTEDTAVYYCTTGSSWNVYFFDFWGQGTLVTVSS
VL: DIQMTQSPSSLSASVGDSVTITCRASQSISNYLNWYHQKPGKAPKLLIYAAYRLQTGVPSRFSGSGSGTDFTLTISSLQPEDFATYYCQQSYSSPLTFGGGTKVEIKR
B3: anti-hOX40L antibody clone 128 (antibody, human IgG1, kappa, L234A L235A, V domains shown)
VH: EVQLVESGGGLVTPGGSLRISCAASGFTFNNAWMTWVRQAPGKGLEWVGRIKSISYGGTTDSAAPVKGRFTISRDDSENTLYLQMSSLKTEDTAVYYCSTGSVWKYGGSLDFWGQGTLVTVSS
VL: DIQMTQSPSSLSASVGDRVTFTCRASQGISRFLNWYQQKPGKAPKLLIYAASTLQNGVPSRFSGSGSGTDFTLTISSLQPEDFATYFCQQTYSTPLTFGGGTKVEIYR
B4: positive control based on the sequences of the anti-hOX40L antibody amlitelimab (antibody, IgG4, V domains shown)
VH: EVQLVESGGGLVQPGGSLRLSCAASGFTFSNYAMNWVRQAPGKGLEWVSTISGSGGATRYADSVKGRFTISRDNSRNTVYLQMNSLRVEDTAVFYCTKDRLIMATVRGPYYYGMDVWGQGTTVTVSS
VL: DIQMTQSPSSLSASVGDRVTITCRASQSISSYLNWYQQKPGKAPNLLIYAASSLQSGVPSRFSGSGSETDFTLTISSLQPEDFATYYCQQSHSVSFTFGPGTKVDIK
notes: also called Pos; Ctrl
B5: anti-hOX40L antibody clone 118 (antibody, human IgG1, kappa, L234A L235A, V domains shown)
VH: EVQVVESGGGLIQPGGSLRISCAASGFPVSSNYMSWVRQAPGKGLDWVSIIYSRDSTHYADSVKGRFTMSRDNSKNTVYLQMNSLRAEDTAVYYCAGTLTYYYGAGSDYWGQGTLVTVSS
VL: DIQMTQSPSSLSASVGDRVTITCRASQGIRNDLGWYQQKPGKAPKRLIYAASSLQSGVPSRFSGSGSGTEFTLTISSLQPEDFATYYCLQHNSYPWSFGQGTKVEIKR
B6: anti-hOX40L antibody clone 328 (antibody, human IgG1, kappa, L234A L235A)
heavy: QVQLQESGPGLVKPSQTLSLTCTVSGGSISSGGYYWSWIRQYPGKGLEWIGHIYYSGSTKYNPSLKSRLTISVDTSKNQFSLKLSSVTAADTAVYYCARDNWGSGWYYMDVWGKGTTVTVSSASTKGPSVFPLAPSSKSTSGGTAALGCLVKDYFPEPVTVSWNSGALTSGVHTFPAVLQSSGLYSLSSVVTVPSSSLGTQTYICNVNHKPSNTKVDKKVEPKSCDKTHTCPPCPAPEAAGGPSVFLFPPKPKDTLYITREPEVTCVVVDVSHEDPEVKFNWYVDGVEVHNAKTKPREEQYNSTYRVVSVLTVLHQDWLNGKEYKCKVSNKALPAPIEKTISKAKGQPREPQVYTLPPSRDELTKNQVSLTCLVKGFYPSDIAVEWESNGQPENNYKTTPPVLDSDGSFFLYSKLTVDKSRWQQGNVFSCSVMHEALHNHYTQKSLSLSPG
light: EIVLTQSPATLSLSPGERATLSCRASQSVSNYFAWYRQKPGQAPRLLIYDASNRATGIPARFSGSGSGTDFTLTISSLEPEDFAVYYCQHRSNWPLTFGGGTKVEIKRTVAAPSVFIFPPSDEQLKSGTASVVCLLNNFYPREAKVQWKVDNALQSGNSQESVTEQDSKDSTYSLSSTLTLSKADYEKHKVYACEVTHQGLSSPVTKSFNRGEC
B7: anti-hOX40L antibody clone 127 (antibody, human IgG1, kappa, L234A L235A, V domains shown)
VH: EVQLVESGGGFVKPGGSLRLSCAASGFTFSNAWMSWVRQAPGKGLEWVGRIKSNSYGGTTDYAAPAIGRFTISRDGSKSTLYLQMNSLKTEDTAVYYCTTDHPKFGFDFWGQGTLVTVSS
VL: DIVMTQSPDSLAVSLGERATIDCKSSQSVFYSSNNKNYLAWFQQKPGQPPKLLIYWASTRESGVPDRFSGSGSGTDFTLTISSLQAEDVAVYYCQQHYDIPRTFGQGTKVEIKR

Assays:
[1] = biological target: T1, Recombinant Human OX40L Protein, His Tag (Acro Cat. IL3-H52H4) (human, UniProt P23510 51-183); assay: SPR (Biacore 8K), antibody captured, human OX40L injected, 1:1 fit
T1 construct: Bought His-tagged protein; also called hOX40L
T1 sequence: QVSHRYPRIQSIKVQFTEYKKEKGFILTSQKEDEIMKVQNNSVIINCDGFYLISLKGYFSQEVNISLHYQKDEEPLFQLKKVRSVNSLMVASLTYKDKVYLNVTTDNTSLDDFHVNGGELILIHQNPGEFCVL
Description: (§1) Samples were injected in a multi-cycle manner over freshly captured mAb, by regenerating the capture surfaces with injection of glycine pH 1.5 for 30 sec at a flow rate of 30 μL/min. The data was processed and analyzed with Biacore Insight Evaluation Software Version 2.0.15.12933 (GE Healthcare) as follows. […] The responses from the two buffer blank injections were then subtracted from the reference subtracted data (2-1) to yield double-referenced data, which were fit to an 1:1 binding model to determine the apparent association (ka) and dissociation rate constants (kd). Their ratio provided the apparent equilibrium dissociation constant or affinity constant (KD=kd/ka).

biotinylated hOX40L = biological target: T2, biotinylated hOX40L (human, UniProt P23510 51-183, limits assumed, biotinylated (sites not given)); assay: blocking ELISA: biotinylated hOX40L preincubated with titrated antibody, added to coated hOX40-Fc, Extravidin-HRP
T2 construct: construct not described
T2 sequence: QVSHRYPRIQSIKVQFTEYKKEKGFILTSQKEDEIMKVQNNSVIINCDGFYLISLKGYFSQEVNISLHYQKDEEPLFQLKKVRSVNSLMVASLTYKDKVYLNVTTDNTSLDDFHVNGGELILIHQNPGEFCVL

[2] = biological target: T3, hOX40L on hOX40L-expressing CHO cells (human, UniProt P23510 1-183); assay: flow cytometry on hOX40L-expressing CHO cells, gMFI, nonlinear regression
T3 construct: also called cell surface OX40L
T3 sequence: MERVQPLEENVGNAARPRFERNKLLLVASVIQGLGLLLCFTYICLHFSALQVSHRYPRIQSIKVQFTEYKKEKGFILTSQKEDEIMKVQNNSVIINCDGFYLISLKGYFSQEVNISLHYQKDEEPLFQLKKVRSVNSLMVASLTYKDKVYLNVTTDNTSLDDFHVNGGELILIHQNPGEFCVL
Description: Nonlinear regression was performed on geometric mean fluorescence intensity (gMFI) values to determine EC50 values (FIG. 1, TABLE 8).

[3] = biological target: T4, Recombinant Cynomolgus OX40L Protein, His Tag (SINO BIOLOGICAL, Cat. 11057-C07H) (cynomolgus, UniProt G7NVH7 51-183); assay: SPR (Biacore 8K), antibody captured, cynomolgus OX40L injected, 1:1 fit
T4 construct: Bought protein
T4 sequence: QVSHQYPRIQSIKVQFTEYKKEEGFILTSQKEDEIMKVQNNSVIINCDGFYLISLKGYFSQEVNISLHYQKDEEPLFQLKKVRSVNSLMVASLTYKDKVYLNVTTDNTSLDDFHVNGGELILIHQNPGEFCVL
Description: as §1

[4] = biological target: T5, hOX40L added as soluble protein in cell assays (human, UniProt P23510 51-183, limits assumed); assay: cell-based or functional assay
T5 sequence: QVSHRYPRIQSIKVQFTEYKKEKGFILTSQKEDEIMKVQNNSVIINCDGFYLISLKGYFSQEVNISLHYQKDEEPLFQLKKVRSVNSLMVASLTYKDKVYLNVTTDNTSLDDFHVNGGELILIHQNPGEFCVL

cynomolgus FcRn = cynomolgus FcRn (cynomolgus, UniProt Q8SPV9 24-297; Q8SPW0 21-119); assay: SPR (Biacore 8K+), antibody captured by anti-human kappa, cynomolgus FcRn injected, pH 5.8; pH 5.8
Sequence of cynomolgus FcRn (Q8SPV9 24-297 limits assumed, chain 1 of 2): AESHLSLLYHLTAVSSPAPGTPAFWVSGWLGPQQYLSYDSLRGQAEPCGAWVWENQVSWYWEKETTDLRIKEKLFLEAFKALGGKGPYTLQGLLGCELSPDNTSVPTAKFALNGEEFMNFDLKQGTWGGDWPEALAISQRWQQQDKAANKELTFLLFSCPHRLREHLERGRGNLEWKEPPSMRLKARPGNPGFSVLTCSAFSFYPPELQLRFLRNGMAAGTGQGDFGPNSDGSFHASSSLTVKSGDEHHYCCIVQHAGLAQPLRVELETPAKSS
Sequence of cynomolgus FcRn (Q8SPW0 21-119 limits assumed, chain 2 of 2): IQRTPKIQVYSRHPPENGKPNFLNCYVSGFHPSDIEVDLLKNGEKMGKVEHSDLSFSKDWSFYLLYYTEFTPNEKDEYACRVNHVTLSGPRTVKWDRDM
Description: (§2) Briefly, a CM5 Series S sensor chip functionalized with anti-human kappa antibody was used to capture antibodies at 5 μg/mL. […] The chip was regenerated with 10 mM glycine pH 1.5 and 10 mM NaOH between runs.

C1q = biological target: T6, C1q; assay: SPR (Biacore 8K+), antibody captured by anti-human IgG Fc, C1q injected at 25 nM, mean response
T6 construct: also called Clq
T6 sequence (P02745 23-245, chain 1 of 3): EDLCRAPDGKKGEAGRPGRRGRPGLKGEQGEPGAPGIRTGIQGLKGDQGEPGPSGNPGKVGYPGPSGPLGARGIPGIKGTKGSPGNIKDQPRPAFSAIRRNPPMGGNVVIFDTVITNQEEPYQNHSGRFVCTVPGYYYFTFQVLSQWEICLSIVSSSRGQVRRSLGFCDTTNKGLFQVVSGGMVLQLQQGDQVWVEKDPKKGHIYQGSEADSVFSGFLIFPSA
T6 sequence (P02746 28-253, chain 2 of 3, further chain): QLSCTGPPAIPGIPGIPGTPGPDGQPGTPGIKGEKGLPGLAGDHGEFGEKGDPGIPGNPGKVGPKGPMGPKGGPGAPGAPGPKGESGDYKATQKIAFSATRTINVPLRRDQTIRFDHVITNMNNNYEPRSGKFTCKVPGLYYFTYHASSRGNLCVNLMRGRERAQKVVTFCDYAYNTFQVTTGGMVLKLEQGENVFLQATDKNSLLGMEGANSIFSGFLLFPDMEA
T6 sequence (P02747 29-245, chain 3 of 3, further chain): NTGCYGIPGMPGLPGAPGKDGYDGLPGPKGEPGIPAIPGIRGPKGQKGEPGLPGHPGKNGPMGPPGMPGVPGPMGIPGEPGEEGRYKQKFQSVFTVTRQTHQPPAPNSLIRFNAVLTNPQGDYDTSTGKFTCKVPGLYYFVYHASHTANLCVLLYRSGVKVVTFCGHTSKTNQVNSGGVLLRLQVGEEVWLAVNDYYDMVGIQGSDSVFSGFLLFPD
Description: Briefly, a CM5 Series S sensor chip functionalized with anti-human IgG Fc antibody was used to capture antibodies at 5 μg/mL. […] The chip was regenerated with 10 mM glycine pH 1.5 and 10 mM NaOH between runs.

human FcRn = human FcRn (human, UniProt P55899 24-297; P61769 21-119); assay: SPR (Biacore 8K+), antibody captured by anti-human kappa, human FcRn injected, pH 5.8; pH 5.8
Sequence of human FcRn (P55899 24-297 limits assumed, form in doubt, chain 1 of 2): as the sequence (Q8SPV9 24-297 limits assumed, chain 1 of 2) above, with D39N, Q44E, S99G, G189S, N190S, M217L, T269S counted along it
Sequence of human FcRn (P61769 21-119 limits assumed, form in doubt, chain 2 of 2): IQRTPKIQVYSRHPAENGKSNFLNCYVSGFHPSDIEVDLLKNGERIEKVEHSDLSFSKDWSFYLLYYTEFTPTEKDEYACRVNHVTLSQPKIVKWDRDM
Description: as §2

Binder | Kd [1] [nM] | koff [1] [s⁻¹] | kon [1] [M⁻¹ s⁻¹] | IC50 (biotinylated hOX40L) [nM] | EC50 [2] [nM] | Kd [3] [nM] | koff [3] [s⁻¹] | kon [3] [M⁻¹ s⁻¹] | IC50, luminescence (RLU), hOX40 reporter cells with 50 ng/mL hOX40L [4] [nM] | Kd (cynomolgus FcRn) [nM] | koff (cynomolgus FcRn) [s⁻¹] | kon (cynomolgus FcRn) [M⁻¹ s⁻¹] | RU at 25 nM C1q (C1q) [RU] | Kd (human FcRn) [nM] | koff (human FcRn) [s⁻¹] | kon (human FcRn) [M⁻¹ s⁻¹]
B1 | < 0.00662 | < 1e-06 | 151000 | 1.57 |  |  |  |  |  |  |  |  |  |  |  | 
B2 | 0.0873 | 1.14e-05 | 131000 | 13 |  |  |  |  |  |  |  |  |  |  |  | 
B3 | < 0.00893 | < 1e-06 | 112000 | 7.52 |  |  |  |  |  |  |  |  |  |  |  | 
B4 |  |  |  | 0.62 | 3.49 | 0.0455 | 0.000119 | 2.62e+06 |  |  |  |  |  |  |  | 
B5 | 0.182 | 2.82e-05 | 155000 |  |  |  |  |  | 0.912 |  |  |  |  |  |  | 
B6 | 0.136 | 0.000271 | 2e+06 | 5.99 |  | 0.0316 | 0.000152 | 4.8e+06 | 1.9 | 116 | 0.0462 | 399000 | 0.2 | 137 | 0.046 | 336000
B7 | 1.11 | 0.00021 | 189000 |  |  |  |  |  | 1.72 |  |  |  |  |  |  | 
